Key:
Assay in all cases: IEDB peptide-MHC binding, purified MHC/competitive/radioactivity; filed as Kd, often an IC50 or EC50 that approximates it; ≥ and ≤ were set here for values at or beyond the usual limits of such assays
[1] = molecular target: HLA-A*03:01
[2] = molecular target: HLA-A*11:01
[3] = molecular target: HLA-A*31:01
[4] = molecular target: HLA-A*33:01
[5] = molecular target: HLA-A*68:01
[6] = source organism: Mammarenavirus brazilense
[7] = source organism: Mammarenavirus juninense
[8] = source organism: Mammarenavirus whitewaterense
[9] = source organism: Vaccinia virus WR
[10] = source organism: Dengue virus 1 Brazil/97-11/1997
[11] = source organism: SARS coronavirus Tor2
[12] = source organism: Dengue virus 2 Jamaica/1409/1983
[13] = source organism: Dengue virus 3 Martinique/1243/1999
[14] = source organism: Mammarenavirus guanaritoense
[15] = source organism: Dengue virus 4 Philippines/H241/1956
[16] = source organism: Mammarenavirus machupoense

## KCFGNTALAK
[1]; [6]
  Kd: 830 nM
[2]; [6]
  Kd: 8480 nM
[3]; [6]
  Kd: 972 nM
[4]; [6]
  Kd: ≥ 70000 nM
[5]; [6]
  Kd: ≥ 22500 nM

## KCFGNTAVAK
[1]; [7]
  Kd: 579 nM
[2]; [7]
  Kd: 6460 nM
[3]; [7]
  Kd: 181 nM
[4]; [7]
  Kd: 1470 nM
[5]; [7]
  Kd: 18800 nM

## KIGHHVELQH
[1]; [8]
  Kd: ≥ 47100 nM
[2]; [8]
  Kd: ≥ 69700 nM
[3]; [8]
  Kd: 25.2 nM
[4]; [8]
  Kd: ≥ 49800 nM
[5]; [8]
  Kd: ≥ 70100 nM

## KLQARNIQK
[1]; [9]
  Kd: 8.03 nM
[2]; [9]
  Kd: 17.8 nM
[3]; [9]
  Kd: 13.5 nM
[4]; [9]
  Kd: 927 nM
[5]; [9]
  Kd: 169 nM

## KVSAQNISFK
[1]; [9]
  Kd: 5070 nM
[2]; [9]
  Kd: 131 nM
[3]; [9]
  Kd: 433 nM
[4]; [9]
  Kd: 3320 nM
[5]; [9]
  Kd: 3380 nM

## LAIKNYYRK
[1]; [9]
  Kd: ≥ 45700 nM
[2]; [9]
  Kd: 75.9 nM
[3]; [9]
  Kd: 783 nM
[4]; [9]
  Kd: 1440 nM
[5]; [9]
  Kd: 12.7 nM

## LAMGIMMLK
[1]; [10]
  Kd: 76.3 nM
[2]; [10]
  Kd: 32.7 nM
[5]; [10]
  Kd: 20.6 nM

## LFLLFLEITY
[1]; [9]
  Kd: 1960 nM
[2]; [9]
  Kd: 3720 nM
[3]; [9]
  Kd: 3460 nM
[4]; [9]
  Kd: 9640 nM
[5]; [9]
  Kd: 274 nM

## LLFADINGK
[1]; [11]
  Kd: 30.8 nM
[2]; [11]
  Kd: 8.81 nM
[3]; [11]
  Kd: 2560 nM
[4]; [11]
  Kd: ≥ 50900 nM
[5]; [11]
  Kd: 120 nM

## LLGDSDSVAK
[1]; [9]
  Kd: 203 nM
[2]; [9]
  Kd: 584 nM
[3]; [9]
  Kd: 3580 nM
[4]; [9]
  Kd: ≥ 70000 nM
[5]; [9]
  Kd: 10900 nM

## LMSGKGIGK
[1]; [12]
  Kd: 75.2 nM

## LTALLSCIR
[1]; [9]
  Kd: ≥ 78000 nM
[2]; [9]
  Kd: 914 nM
[3]; [9]
  Kd: 244 nM
[4]; [9]
  Kd: 1100 nM
[5]; [9]
  Kd: 7.66 nM

## LTNKHCLNNY
[1]; [9]
  Kd: 1380 nM
[2]; [9]
  Kd: 2070 nM
[3]; [9]
  Kd: 4420 nM
[4]; [9]
  Kd: ≥ 66000 nM
[5]; [9]
  Kd: ≥ 21200 nM

## LTNTTTESR
[5]; [12]
  Kd: 73.6 nM

## LTYQNKVVK
[1]; [13]
  Kd: 11.8 nM
[2]; [13]
  Kd: 70.5 nM

## MIIGHIGHHY
[1]; [9]
  Kd: 47 nM
[2]; [9]
  Kd: 103 nM
[3]; [9]
  Kd: 151 nM
[4]; [9]
  Kd: ≥ 55400 nM
[5]; [9]
  Kd: 19.3 nM

## MLQGRGPLK
[1]; [12]
  Kd: ≤ 1 nM
[2]; [12]
  Kd: 124 nM

## MMFINSTCY
[1]; [9]
  Kd: 21.2 nM
[2]; [9]
  Kd: 159 nM
[3]; [9]
  Kd: 129 nM
[4]; [9]
  Kd: 3930 nM
[5]; [9]
  Kd: 145 nM

## MMNRDKIPIY
[1]; [9]
  Kd: 1030 nM
[2]; [9]
  Kd: 3800 nM
[3]; [9]
  Kd: 10400 nM
[4]; [9]
  Kd: ≥ 70000 nM
[5]; [9]
  Kd: ≥ 70200 nM

## MSHVKSVTK
[1]; [9]
  Kd: 18.6 nM
[2]; [9]
  Kd: 8.05 nM
[3]; [9]
  Kd: 20.1 nM
[4]; [9]
  Kd: 1930 nM
[5]; [9]
  Kd: 9 nM

## MSMGDIITY
[1]; [9]
  Kd: 134 nM
[2]; [9]
  Kd: 5.67 nM
[3]; [9]
  Kd: 8570 nM
[4]; [9]
  Kd: 13300 nM
[5]; [9]
  Kd: 1.85 nM

## NAPIKEFKAK
[1]; [9]
  Kd: 15600 nM
[2]; [9]
  Kd: ≥ 27700 nM
[3]; [9]
  Kd: 8830 nM
[4]; [9]
  Kd: 3310 nM
[5]; [9]
  Kd: 187 nM

## NFFTELENK
[1]; [9]
  Kd: ≥ 69500 nM
[2]; [9]
  Kd: 1690 nM
[3]; [9]
  Kd: 7320 nM
[4]; [9]
  Kd: 11300 nM
[5]; [9]
  Kd: 1280 nM

## NIILSKIPY
[1]; [9]
  Kd: 1180 nM
[2]; [9]
  Kd: 552 nM
[3]; [9]
  Kd: 14400 nM
[4]; [9]
  Kd: 9760 nM
[5]; [9]
  Kd: 778 nM

## NISIIVLFQR
[1]; [9]
  Kd: 907 nM
[2]; [9]
  Kd: 670 nM
[3]; [9]
  Kd: 33.6 nM
[4]; [9]
  Kd: 1400 nM
[5]; [9]
  Kd: 3.84 nM

## NIVTFINDY
[1]; [9]
  Kd: ≥ 78000 nM
[2]; [9]
  Kd: ≥ 45900 nM
[3]; [9]
  Kd: 14600 nM
[4]; [9]
  Kd: ≥ 77700 nM
[5]; [9]
  Kd: 535 nM

## NLDPDNKMSY
[1]; [9]
  Kd: 950 nM
[2]; [9]
  Kd: 582 nM
[3]; [9]
  Kd: ≥ 41300 nM
[4]; [9]
  Kd: ≥ 65800 nM
[5]; [9]
  Kd: 1460 nM

## NTMCTEETKR
[1]; [9]
  Kd: ≥ 32200 nM
[2]; [9]
  Kd: 6410 nM
[3]; [9]
  Kd: 13300 nM
[4]; [9]
  Kd: 4210 nM
[5]; [9]
  Kd: 17.8 nM

## NVKKKNEGK
[1]; [9]
  Kd: 6520 nM
[2]; [9]
  Kd: ≥ 29700 nM
[3]; [9]
  Kd: ≥ 20400 nM
[4]; [9]
  Kd: 17600 nM
[5]; [9]
  Kd: 142 nM

## NYVHCFRKPH
[1]; [14]
  Kd: ≥ 70000 nM
[2]; [14]
  Kd: ≥ 69700 nM
[3]; [14]
  Kd: 12000 nM
[4]; [14]
  Kd: 1430 nM
[5]; [14]
  Kd: ≥ 70100 nM

## PVSMTYLYNK
[1]; [9]
  Kd: 1190 nM
[2]; [9]
  Kd: 107 nM
[3]; [9]
  Kd: 6150 nM
[4]; [9]
  Kd: ≥ 70000 nM
[5]; [9]
  Kd: 12900 nM

## QFANVISKIY
[1]; [9]
  Kd: 3390 nM
[2]; [9]
  Kd: 8660 nM
[3]; [9]
  Kd: 1140 nM
[4]; [9]
  Kd: 1200 nM
[5]; [9]
  Kd: 1950 nM

## RFWELVDKER
[3]; [15]
  Kd: 5.19 nM

## RFWELVDRER
[3]; [12]
  Kd: 0.343 nM

## RLGVRATRK
[5]; source organism: Hepacivirus hominis
  Kd: ≥ 80000 nM

## RLKMDKLELK
[1]; [13]
  Kd: 34.6 nM

## RMLNILNGRK
[1]; [15]
  Kd: 13.8 nM

## RQMEGEGVFK
[1]; source organism: Dengue virus 2 Peru/IQT2913/1996
  Kd: 23.9 nM

## RVIDPRRCLK
[1]; [10]
  Kd: 8.63 nM
[3]; [10]
  Kd: 0.766 nM
[5]; [10]
  Kd: 28 nM

## SDGTFKIGLH
[3]; [16]
  Kd: ≥ 36100 nM
[4]; [16]
  Kd: ≥ 47500 nM

## SGNDIANCLR
[4]; [10]
  Kd: 141 nM

## STGSQLAKR
[3]; [10]
  Kd: 215 nM

## VQTKPGLFK
[1]; [12]
  Kd: 144 nM
[2]; [12]
  Kd: 102 nM

## VTFKTAHAK
[1]; [10]
  Kd: 4.15 nM
[2]; [10]
  Kd: 89.7 nM
[5]; [10]
  Kd: 43.9 nM

## VTFKVPHAKR
[5]; [15]
  Kd: 21.5 nM

## YQNKVVKVQR
[4]; [13]
  Kd: 701 nM
